In paper PMC11109247:

Tests used:
[1] = molecular target: T1, sF ectodomain (Nipah henipavirus), Q9IH63; assay: BLI; details: modification not given
T1 chain: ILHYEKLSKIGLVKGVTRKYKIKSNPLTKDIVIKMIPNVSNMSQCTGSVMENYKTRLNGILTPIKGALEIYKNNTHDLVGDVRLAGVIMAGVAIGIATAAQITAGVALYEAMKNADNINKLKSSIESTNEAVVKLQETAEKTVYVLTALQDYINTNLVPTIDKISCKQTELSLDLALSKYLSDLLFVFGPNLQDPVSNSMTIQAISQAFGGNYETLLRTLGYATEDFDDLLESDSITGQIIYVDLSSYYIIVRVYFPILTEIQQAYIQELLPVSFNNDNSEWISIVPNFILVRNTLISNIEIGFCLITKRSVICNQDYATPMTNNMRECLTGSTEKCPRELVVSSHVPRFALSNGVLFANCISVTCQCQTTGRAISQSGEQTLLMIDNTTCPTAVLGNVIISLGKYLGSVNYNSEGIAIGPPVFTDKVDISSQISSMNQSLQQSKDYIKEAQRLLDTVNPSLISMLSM

[2] = molecular target: T1, sF ectodomain (Nipah henipavirus), …; assay: MST; details: modification not given

B1: P-59 peptide peptide P-59, Q9IH62 (peptide)
chain: HECNISCPNPLPFREYRPQTEGV
**Q.** What does the source list for B1?
**A.** Kd [1]: 0.19 µM; Kd [2]: 5 µM
